# Source: patent publication US20080311122A1, “Antagonists of Hmgb1 and/or Rage and Methods of Use Thereof” (Medimmune, LLC, priority 2005, published 2008)
# Read-outs that look alike come from different tables or passages of the source.
# T1: interaction of CpG and HMGB1 (Bos taurus, UniProt P10103)
# T1 construct: from tissue; host or cells: bovine thymus
# T1 sequence (P10103 2-215 limits assumed): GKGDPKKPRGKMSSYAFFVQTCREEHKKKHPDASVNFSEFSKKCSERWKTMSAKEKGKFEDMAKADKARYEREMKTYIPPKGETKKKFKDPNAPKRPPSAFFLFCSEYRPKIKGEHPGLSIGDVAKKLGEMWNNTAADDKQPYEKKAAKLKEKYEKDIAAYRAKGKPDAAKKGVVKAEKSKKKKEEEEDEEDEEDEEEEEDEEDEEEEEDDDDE
# Legend:
# AM14 B cells = experiment: AM14 proliferation assay; type: cell-based, mouse; conditions: for inhibition of DNA immune complex (PL2-3) dependent proliferation of AM14 B cells: thymidine incorporation
# Description: AM14 proliferation assay: Purified AM14 B cells were preincubated with RAGE-Fc or control human IgG1 for 30 min at 37° C., and stimulated with 0.1 μg/ml of PL2-3 for 24 h at 37° C. Cells were then pulsed with [^3H]thymidine for 6 h.
# [1] = test system: CpG2216+thymus HMG1 induced IFN-a release (TLR9 signaling); experiment: Inhibition of HMG1 mediated enhancement of TLR9 signaling, CpG2216 + thymus HMG1 in bone marrow cells; type: cell-based; conditions: mouse bone marrow cells
# Description: HMGB1+TLR Ligand: Freshly isolated bone marrow cells were stimulated with TLR ligands (TLR3:PolyIC@5 μg/mL; TLR4:LPS@2.5 ng/mL; TLR5:flagellin@0.25 μg/mL; TLR7:polyU@4 μg/mL or R837@5 μg/mL; TLR9:CpG2216@1 μM) with or without presence of thymus HMGB1 (10 μg/mL) for 24 hr. Cytokines in the supernatant were measured by ELISA.
# Inhibition of HMG1 Mediated Enhancement of TLR Signaling: Freshly isolated bone marrow cells were stimulated with TLR9 ligand CpG2216 (0.3 μM) and thymus HMGB1 (10 μg/mL) in the presence of different concentration of the anti-HMGB1 mAb E11 or control human IgG for 24 hr and IFN-a in the supernatant was measured by ELISA. CpG2216, HMGB1 and nonstimulatory DNA were used alone or in combination as controls for the assay.
# [2] = molecular target: T1, interaction of CpG and HMGB1; experiment: CpG ELISA, HMGB1 binding to CpG
# Description: CpG ELISA: Proteins or peptides were diluted in PBS to the concentration of 5 μg/ml and coated onto plates at 4° C. o/n. Plates were blocked with 4% dry milk in PBS. Biotin labeled CpG-A alone or in complex with HMGB1 were incubated in the plates at 37° C. for 1 hr. and detected with HRP labeled strep-avidin.
# mouse macrophages = experiment: TNF-a induction in mouse macrophages; type: cell-based
# Description: TNF-a Induction: To examine mRNA levels macrophages were derived from mouse bone marrow using M-CSF. Macrophages were then stimulated by LPS, E. coli produced recombinant HMGB1 or HMGB1 purified from bovine thymus for indicated length of time and mRNA is measured by Taqman. To examine protein levels thioglycant activated mouse peritoneal macrophages were stimulated with 10 μg/mL of HMGB1 purified from bovine thymus or recombinant HMGB1 generated from E. coli for 24 hr. Cytokines in the supernatant were measured by ELISA.
# [3] = test system: HMG1 stimulated cytokine gene expression in mouse macrophages; experiment: Taqman analysis of mouse macrophages (mMØ) stimulated with HMG1; type: cell-based; conditions: rHMG1
# Description: Taqman Analysis of Mouse Macrophages (mMØ) Stimulated with HMG1: Mouse bone marrow was harvested by rinsing the femurs of normal C57BL/6 mice. The isolated bone marrow cells were then cultured in Dulbecco's modified Eagle's medium (DMEM) supplemented with 10% fetal bovine serum (FBS) and 50 ng/ml M-CSF for 24 h, nonadherent cells were collected and grown for 6 days in complete DMEM supplemented with 10% FBS and 50 ng/ml M-CSF in T-75 flasks (1×10^7 cells/15 ml/flask). On day 6, adherent cells were harvested and reseeded with 5 ng/ml MCSF in α-MEM containing 10% FBS in 96-well plates (1×10^5 cells/200 μl/well) overnight.
# The culture medium was replaced with α-MEM and incubated for 2 hours before stimulation to starve cells. HMGB1 (recombinant CBP-HMGB1 fusion protein generated from E. coli at 10 μg/ml), mouse-RAGE-Fc or human-RAGE-Fc fusion protein were pre-mixed with various blocking reagents at 100 μg/ml in α-MEM for 20 min at RT, then 100 μl of the mixtures was added to the cells and incubated at 37° C. for 2 hours. The supernatant was then removed, and the RNA was extracted using Ambion's MagMAX™-96 Total RNA Isolation Kit. All of the recovered RNA were used in a reverse transcriptase (RT) reaction with SuperScript™ III and oligo(dT) primer (Invitrogen) for synthesis of cDNA. 1 μl or 2 μl of the resulting cDNA was used for real time quantitative PCR analysis (TaqMan) using ABI Prism 7700 or 7000.
molecule,measurement,setting,value
"A-box: synthesized HMGB1 A-box peptide (SEQ ID NO: 108), a known HMGB1 antagonist (peptide, listed as Homo sapiens) PRGKMSSYAFFVQTCREEHKKKHPDASVNFSEFSKKCSERWKTMSAKEKGKFEDMAKADKARYEREMKTYIPPKGET","effect on TLR2, TLR4 ligand induced proliferation or BCR mediated B cell activation",AM14 B cells,had no effect
same,inhibition of DNA immune complex (PL2-3) dependent proliferation of AM14 B cells,AM14 B cells; listed as A box antagonist,reduced proliferation
same,inhibition of DNA immune complex (PL2-3) dependent proliferation of AM14 B cells,AM14 B cells; listed as HMGB A box,markedly inhibited PL2-3-dependent proliferation of AM14 B cells
same,inhibition of IFN-a release induced by CpG + thymus HMG1,[1],inhibit IFN-a release
same,inhibition of IFN-a release induced by CpG + thymus HMG1,[1]; listed as HMGB1 A-box,did not show inhibition in this assay
same,inhibition of the interaction of CpG and HMGB1,[2],inhibit the interaction of CpG and HMGB1
same,inhibition of the interaction of CpG and HMGB1,[2]; listed as A box HMGB1,prevented the binding of HMGB1 to CpG DNA
"rHMG1: E. coli produced recombinant HMG1 (CBP fusion protein) (protein, left off: small tags and cut ends) MGKGDPKKPRGKMSSYAFFVQTCREEHKKKHPDASVNFSEFSKKCSERWKTMSAKEKGKFEDMAKADKARYEREMKTYIPPKGETKKKFKDPNAPKRPPSAFFLFCSEYRPKIKGEHPGLSIGDVAKKLGEMWNNTAADDKQPYEKKAAKLKEKYEKDIAAYRAKGKPDAAKKGVVKAEKSKKKKEEEEDEEDEEDEEEEEDEEDEDEEEDDDDE",induction of TNF-a mRNA levels,mouse macrophages; 2 hours,~43 fold
same,increase in TNF-a protein levels,"mouse macrophages; 24 hours, supernatant",~10 fold
"mouse RAGE-Fc fusion protein: mouse RAGE-Fc fusion protein (protein, left off: a dimerising Fc or GST) QNITARIGEPLVLSCKGAPKKPPQQLEWKLNTGRTEAWKVLSPQGGPWDSVARILPNGSLLLPATGIVDEGTFRCRATNRRGKEVKSNYRVRVYQIPGKPEIVDPASELTASVPNKVGTCVSEGSYPAGTLSWHLDGKLLIPDGKETLVKEETRRHPETGLFTLRSELTVIPTQGGTHPTFSCSFSLGLPRRRPLNTAPIQLRVREPGPPEGIQLLVEPEGGIVAPGGTVTLTCAISAQPPPQVHWIKDGAPLPLAPSPVLLLPEVGHEDEGTYSCVATHPSHGPQESPPVSIRVTETGDEGPAEGSVGESGLGTLALA",inhibition of HMG1-induced IL-1β gene expression,[3],robustly inhibited
same,inhibition of HMG1-induced TNF-a gene expression,[3],robustly inhibited
